The results in this text go back to US20190345459A1 (YEDA RESEARCH AND DEVELOPMENT, published 2019).

Assay [1] addresses T1, tetravalent scaffoldin ScafCA(CBM)TF (SEQ ID No. 5).
T1 chain: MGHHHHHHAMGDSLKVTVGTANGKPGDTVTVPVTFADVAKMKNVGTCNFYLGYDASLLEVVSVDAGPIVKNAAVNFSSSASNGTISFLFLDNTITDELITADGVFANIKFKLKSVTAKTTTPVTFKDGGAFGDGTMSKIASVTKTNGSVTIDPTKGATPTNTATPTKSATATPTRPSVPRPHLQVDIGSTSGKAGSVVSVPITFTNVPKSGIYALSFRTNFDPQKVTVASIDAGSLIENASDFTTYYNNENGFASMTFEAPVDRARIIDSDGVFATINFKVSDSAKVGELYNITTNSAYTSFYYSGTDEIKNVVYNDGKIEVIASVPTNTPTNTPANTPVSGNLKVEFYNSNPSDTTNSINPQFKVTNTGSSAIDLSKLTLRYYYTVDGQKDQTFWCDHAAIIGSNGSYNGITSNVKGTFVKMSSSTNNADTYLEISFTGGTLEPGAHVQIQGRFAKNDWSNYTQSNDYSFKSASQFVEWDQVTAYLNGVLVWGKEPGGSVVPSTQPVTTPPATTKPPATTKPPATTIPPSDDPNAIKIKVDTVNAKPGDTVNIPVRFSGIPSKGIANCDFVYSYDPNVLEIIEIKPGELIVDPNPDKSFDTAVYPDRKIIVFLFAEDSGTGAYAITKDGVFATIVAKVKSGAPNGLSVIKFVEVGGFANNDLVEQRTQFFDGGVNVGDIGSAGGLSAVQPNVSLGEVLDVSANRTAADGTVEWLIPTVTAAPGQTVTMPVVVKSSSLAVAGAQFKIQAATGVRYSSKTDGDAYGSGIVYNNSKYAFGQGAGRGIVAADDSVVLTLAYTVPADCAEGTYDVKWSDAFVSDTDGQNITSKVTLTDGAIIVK
As to the kind of experiment: electrophoretic mobility on non-denaturing PAGE, equimolar enzymes and scaffoldin.

Assay [2] addresses T2, C. thermocellum cohesin 3 from CipA (Clostridium thermocellum, UniProt Q06851 560-704).
T2 construct: domain: cohesin 3; also called cohesin T
T2 sequence: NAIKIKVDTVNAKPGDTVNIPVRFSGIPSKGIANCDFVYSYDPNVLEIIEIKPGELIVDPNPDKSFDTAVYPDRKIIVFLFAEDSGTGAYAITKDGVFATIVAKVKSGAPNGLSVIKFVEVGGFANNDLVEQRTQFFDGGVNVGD
As to the kind of experiment: affinity-based ELISA, cohesin-dockerin binding. In general terms: In an ELISA, binding on a coated surface is turned into a signal by an enzyme label.

B1: Xyn11V-a (SEQ ID No. 3) (enzyme)
chain: MHHHHHHDVVITSNQTGTHGGYNFEYWKDTGNGTMVLKDGGAFSCEWSNINNILFRKGFKYDETKTHDQLGYITVTYSCNYQPNGNSYLGVYGWTSNPLVEYYIIESWGTWRPPGATPKGTITVDGGTYEIYETTRVNQPSIKGTATFQQYWSVRTSKRTSGTISVTEHFKAWERLGMKMGKMYEVALVVEGYQSSGKADVTSMTITVGNAPSTSSPPGPTPEPTPRSAFSKIEAEEYNSLKSSTIQTIGTSDGGSGIGYIESGDYLVFNKINFGNGANSFKARVASGADTPTNIQLRLGSPTGTLIGTLTVASTGGWNNYEEKSCSITNTTGQHDLYLVFSGPVNIDYFIFDSKGVNPTPTPTSTTTPTPKFIYGDVDGNGSVRINDAVLIRDYVLGKINEFPYEYGMLAADVDGNGSIKINDAVLVRDYVLGKIFLFPVEEKEELEHHHHHH
Consider B1, for which the binding result in assay [1] was “binds”.

B2: f-5A (SEQ ID No. 2) (enzyme)
chain: MAHHHHHHAPSPGTKLVPTWGDTNCDGVVNVADVVVLNRFLNDPTYSNITDQGKVNADVVDPQDKSGAAVDPAGVKLTVADSEAILKAIVELITLPQAVPGTQPGTGTPVERYGKVQVCGTQLCDEHGNPVQLRGMSTHGIQWFDHCLTDSSLDALAYDWKADIIRLSMYIQEDGYETNPRGFTDRMHQLIDMATARGLYVIVDWHILTPGDPHYNLDRAKTFFAEIAQRHASKTNVLYEIANEPNGVSWASIKSYAEEVIPVIRQRDPDSVIIVGTRGWSSLGVSEGSGPAEIAANPVNASNIMYAFHFYAASHRDNYLNALREASELFPVFVTEFGTETYTGDGANDFQMADRYIDLMAERKIGWTKWNYSDDFRSGAVFQPGTCASGGPWSGSSLKASGQWVRSKLQS
As for B2, the binding result in assay [1] is on record as “binds”.

B3: t-48A (SEQ ID No. 4) (enzyme)
chain: MAHHHHHHAVESSSTGLGDLNGDGNINSSDLQALKRHLLGISPLTGEALLRADVNRSGKVDSTDYSVLKRYILRIITEVPGHDSAEVTVREIDPNTSSYDQAFLEQYEKIKDPASGYFREFNGLLVPYHSVETMIVEAPDHGHQTTSEAFSYYLWLEAYYGRVTGDWKPLHDAWESMETFIIPGTKDQPTNSAYNPNSPATYIPEQPNADGYPSPLMNNVPVGQDPLAQELSSTYGTNEIYGMHWLLDVDNVYGFGFCGDGTDDAPAYINTYQRGARESVWETIPHPSCDDFTHGGPNGYLDLFTDDQNYAKQWRYTNAPDADARAVQVMFWAHEWAKEQGKENEIAGLMDKASKMGDYLRYAMFDKYFKKIGNCVGATSCPGGQGKDSAHYLLSWYYSWGGSLDTSSAWAWRIGSSSSHQGYQNVLAAYALSQVPELQPDSPTGVQDWATSFDRQLEFLQWLQSAEGGIAGGATNSWKGSYDTPPTGLSQFYGMYYDWQPVWNDPPSNNWFGFQVWNMERVAQLYYVTGDARAEAILDKWVPWAIQHTDVDADNGGQNFQVPSDLEWSGQPDTWTGTYTGNPNLHVQVVSYSQDVGVTAALAKTLMYYAKRSGDTTALATAEGLLDALLAHRDSIGIATPEQPSWDRLDDPWDGSEGLYVPPGWSGTMPNGDRIEPGATFLSIRSFYKNDPLWPQVEAHLNDPQNVPAPIVERHRFWAQVEIATAFAAHDELFGAGAP
In the case of B3, the binding result in assay [1] was “binds”.

B4: Xyn-c-Lac (SEQ ID No. 1), chimeric bifunctional xylanase-dockerin-laccase (enzyme)
chain: MGSSHHHHHHKNADSYAKKPHISALNAPQLDQRYKNEFTIGAAVEPYQLQNEKDVQMLKRHFNSIVAENVMKPISIQPEEGKFNFEQADRIVKFAKANGMDIRFHTLVWHSQVPQWFFLDKEGKPMVNETDPVKREQNKQLLLKRLETHIKTIVERYKDDIKYWDVVNEVVGDDGKLRNSPWYQIAGIDYIKVAFQAARKYGGDNIKLYMNDYNTEVEPKRTALYNLVKQLKEEGVPIDGIGHQSHIQIGWPSEAEIEKTINMFAALGLDNQITELDVSMYGWPPRAYPTYDAIPKQKFLDQAARYDRLFKLYEKLSDKISNVTFWGIADNHTWLDSRADVYYDANGNVVVDPNAPYAKVEKGKGKDAPFVFGPDYKVKPAYWAIIDHKSAGENLYFQGTSPVIVYGDYNNDGNVDALDFAGLKKYIMAADHAYVKNLDVNLDNEVNAFDLAILKKYLLGMVSKLPSQDPNSVTGTVVELAPGIHAGFTGRAGGVSGEPYATLNLGDHVGDDPAAVAENRRRAALGFGISPDRVVWMNQVHGATAVTVTGSGQAGDVDAVVTPEAGLALAVLVADCLPLLVADAAAGVIGAAHAGRPGMAAGVVPALVAEMARHGARPERCVALLGPAICGRCYEVPRDLQDRVARTVPEARCTTAEGTPGLDIRAGVTAQLTNLGVTNITHDSRCTRESADLFSYRRDATTGRFAGYVWRVP
notes: Recombinant, expressed in E. coli, His-tagged; also called xylanase-tagged laccase; bifunctional xylanase-laccase
Regarding B4, the binding result in assay [2] is “no binding”.
